According to patent publication US20260266833A1:

The binders below were run against H3K9me3 peptide (assay: fluorescence polarization, FITC-peptide 0.5 nM).

Binder	Kd [µM]
Cbx2.VD chromodomain (tags removed) (designed binder) GEDVFAAECILSKRLRKGKLEYLVKWEGWSSKHNSWEPEENILDPRLLLAFQKKEHEKEVQNR	5
Cbx7 Q9D chromodomain (tags removed) (designed binder) SAIGEDVFAVESIRKKRVRKGKVEYLVKWKGWPPKYSTWEPEEHILDPRLVMAYEEKEERDRASGYRKRGPK	10
Cbx7 K33E chromodomain (tags removed) (designed binder) SAIGEQVFAVESIRKKRVRKGKVEYLVKWEGWPPKYSTWEPEEHILDPRLVMAYEEKEERDRASGYRKRGPK	20

Next, values leading:

Kd [µM]	Binder
20	Cbx8.VD chromodomain (tags removed) (designed binder) GEDVFAAEALLKRRIRKGRMEYLVKWEGWSQKYSTWEPEENILDARLLAAFEEREREMELYGP
7	Cbx7.V1 chromodomain (tags removed) (designed binder) SAIGDDIFAVESIRKKRVRKGKVEYLVKWEGWPLEYSTWEPEEHILDPRLVMAYEEKEERDRASGYRKRGPK
8	Cbx7.VD chromodomain (tags removed) (designed binder) SAIGEDVFAVESIRKKRVRKGKVEYLVKWEGWPPKYSTWEPEEHILDPRLVMAYEEKEERDRASGYRKRGPK
30	Cbx7.wt chromodomain (tags removed), O95931 4-75 (protein) SAIGEQVFAVESIRKKRVRKGKVEYLVKWKGWPPKYSTWEPEEHILDPRLVMAYEEKEERDRASGYRKRGPK

What follows are binders tested against H3K9me3 peptide (assay: ITC, peptide titrated into the chromodomain, 25 C).

Kd [µM]	Binder
7	Cbx7.V1 chromodomain (tags removed) (designed binder) SAIGDDIFAVESIRKKRVRKGKVEYLVKWEGWPLEYSTWEPEEHILDPRLVMAYEEKEERDRASGYRKRGPK

What follows are binders tested against H3K9me3 peptide (assay: BLI, biotinylated peptide on streptavidin tips, steady state).

Binder	Kd [µM]
Cbx7.V1 back-mutant D8E, His6- and Flag-tagged (designed binder, not shown: small tags and cut ends) SAIGEDIFAVESIRKKRVRKGKVEYLVKWEGWPLEYSTWEPEEHILDPRLVMAYEEKEERDRASGYRKRGPK	5
Cbx7.V1 back-mutant E33K, His6- and Flag-tagged (designed binder, not shown: small tags and cut ends) SAIGDDIFAVESIRKKRVRKGKVEYLVKWKGWPLEYSTWEPEEHILDPRLVMAYEEKEERDRASGYRKRGPK	10
Cbx7.V1 back-mutant E38K, His6- and Flag-tagged (designed binder, not shown: small tags and cut ends) SAIGDDIFAVESIRKKRVRKGKVEYLVKWEGWPLKYSTWEPEEHILDPRLVMAYEEKEERDRASGYRKRGPK	2

Other lines, results leading:

Kd [µM]	Binder
3	Cbx7.V1 back-mutant L37P, His6- and Flag-tagged (designed binder, not shown: small tags and cut ends) SAIGDDIFAVESIRKKRVRKGKVEYLVKWEGWPPEYSTWEPEEHILDPRLVMAYEEKEERDRASGYRKRGPK
4.5	Cbx7.V1 chromodomain, His6- and Flag-tagged (designed binder, not shown: small tags and cut ends) SAIGDDIFAVESIRKKRVRKGKVEYLVKWEGWPLEYSTWEPEEHILDPRLVMAYEEKEERDRASGYRKRGPK
3.5	Cbx7.V1 back-mutant I10V, His6- and Flag-tagged (designed binder, not shown: small tags and cut ends) SAIGDDVFAVESIRKKRVRKGKVEYLVKWEGWPLEYSTWEPEEHILDPRLVMAYEEKEERDRASGYRKRGPK
